The values that follow come from patent CN113583112A.

A value given as a limit tells only on which side of the number the result lay.

The target in assay [1] is AAVXL32.1蛋白衣壳. In words: BLI (Fortebio), mAb002 on protein G biosensor, antigen at 0.2813 nM. In general terms: BLI is a label-free optical method that tracks binding on a fibre tip over time.
For assay [2], the target named is AAVXL32.1蛋白衣壳. Briefly: BLI (Fortebio), mAb002 2 ug/ml on protein G biosensor, antigen at 0.1406 nM in PBS.
The target in assay [3] is AAVXL32.1蛋白衣壳. Briefly: BLI (Fortebio), mAb002 on protein G biosensor, antigen at 0.0703 nM.
The target in assay [4] is AAVXL32.1蛋白衣壳. In words: BLI (Fortebio), mAb002 on protein G biosensor, antigen at 2.25 nM.
Assay [5] concerns the target AAVXL32.1蛋白衣壳. Briefly: BLI (Fortebio), mAb002 on protein G biosensor, antigen at 1.13 nM.
The target in assay [6] is AAVXL32.1蛋白衣壳. In words: BLI (Fortebio), mAb002 2 ug/ml on protein G biosensor, antigen at 0.2813 nM in PBS.
Assay [7] concerns the target AAVXL32.1蛋白衣壳. In words: BLI (Fortebio), mAb002 on protein G biosensor, antigen at 0.1406 nM.
In assay [8] the target is AAVXL32.1蛋白衣壳. In words: BLI (Fortebio), mAb002 2 ug/ml on protein G biosensor, antigen at 2.25 nM in PBS.
Assay [9] concerns the target AAVXL32.1蛋白衣壳. In words: BLI (Fortebio), mAb002 2 ug/ml on protein G biosensor, antigen at 0.0703 nM in PBS.
For assay [10], the target named is AAVXL32.1蛋白衣壳. Briefly: BLI (Fortebio), mAb002 2 ug/ml on protein G biosensor, antigen at 0.5625 nM in PBS.
Assay [11] has as its target AAVXL32.1蛋白衣壳. Briefly: BLI (Fortebio), mAb002 on protein G biosensor, antigen at 0.5625 nM.
Assay [12] addresses AAVXL32.1蛋白衣壳. Briefly: BLI (Fortebio), mAb002 2 ug/ml on protein G biosensor, antigen at 1.13 nM in PBS.

B1: mAb002抗体 (antibody, V domains shown)
VH: QVQLQQPGAELVRPGTSVKLSCKASGYTFISYWMHWVKQRPGQGLEWIGVIDPSDSYTNYNQKFKGKATLTVDTSSSTAYMQLSSLTSEDSAVYYCARYYYGSSRYFDVWGTGTTVTVSS
VL: YIQMTQTTSSLSASLGDRVTISCRASQDISNYLNWYQQKPDGTVKVLIYYTSRLHSGVPSRFSGSGSGTDYSLTISNLEQEDIATYFCQQSYTLPWTFGGGTKLEIK
With B1, the equilibrium dissociation constant (Kd) in [1], in assay [3], in [4], in assay [5], in assay [7] and in assay [11] was less than 1 pM each time. In addition, the off-rate constant (koff) in assay [1], in assay [3], in assay [4], in [5], in [7] and in assay [11] was less than 1e-07 s⁻¹ throughout. Moreover, the kon in assay [1], in assay [3], in assay [4], in [5], in [7] and in [11] was 3.26e+06 M⁻¹ s⁻¹ each time. In addition, the 响应 in assay [2] came to 0.701; in assay [6] it was 1.4; in assay [8] it was 5.91; in [9], 0.338; in assay [10] it was 2.68; in [12], 4.83.

Usually Kd stands for the constant that tells how readily two partners part at equilibrium. Usually koff stands for a measure of how fast the partners let go of each other. A word on the kon: it is the second-order rate constant of association.
